Columns and labels:
[1] = molecular target: Hxk2 (hexokinase 2, ScHxk2) (UniProt P04807); assay: size exclusion chromatography; details: reference: wild type Hxk2, no glucose; sites S15
[2] = molecular target: the molecule itself; assay: SEC; TOSOH G2000 SWXL column on HPLC; 40 μg protein in 50 μl; hexokinase buffer (20 mM HEPES, 5 mM Mg acetate, 100 mM NaCl, 0.5 mM EDTA, 0.5 mM DTT) without glucose, no ATP; 1 mL/min

other: SEC elution volume [1]	Molecule	stoichiometry N [2]
lost; reference ~8.8	Hxk2 (hexokinase 2, ScHxk2) (from UniProt P04807) Hxk2 S15D, no glucose	
	Recombinant Hxk2, wild type, with C-terminal 6-histidine tag (enzyme, S. cerevisiae, Hexokinase 2 (Hxk2), S. cerevisiae, cloned into pET14b; also called WT Hxk2; purified Hxk2; source: E. coli, purified (Ni-NTA)) MVHLGPKKPQARKGSMADVPKELMQQIENFEKIFTVPTETLQAVTKHFISELEKGLSKKGGNIPMIPGWVMDFPTGKESGDFLAIDLGGTNLRVVLVKLGGDRTFDTTQSKYRLPDAMRTTQNPDELWEFIADSLKAFIDEQFPQGISEPIPLGFTFSFPASQNKINEGILQRWTKGFDIPNIENHDVVPMLQKQITKRNIPIEVVALINDTTGTLVASYYTDPETKMGVIFGTGVNGAYYDVCSDIEKLQGKLSDDIPPSAPMAINCEYGSFDNEHVVLPRTKYDITIDEESPRPGQQTFEKMSSGYYLGEILRLALMDMYKQGFIFKNQDLSKFDKPFVMDTSYPARIEEDPFENLEDTDDLFQNEFGINTTVQERKLIRRLSELIGARAARLSVCGIAAICQKRGYKTGHIAADGSVYNRYPGFKEKAANALKDIYGWTQTSLDDYPIKIVPAEDGSGAGAAVIAALAQKRIAEGKSVGIIGA	2

Reference: publication PMC10228819, “Changing course: Glucose starvation drives nuclear accumulation of Hexokinase 2 in S. cerevisiae” (PLOS Genetics, 2023)
